Measurements: the supplement of paper PMC9170038

System: MS2 coat protein
Test: apparent KD of MS2 coat protein; designed switch direction (-1 OFF switch, 1 ON switch): 1; higher = weaker reporter binding
Method in brief: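 An oligonucleotide input, 200 uM small-molecule ligand, or no input was present during titration of SNAP-549-labelled MS2 coat protein, which was doubled from 0.7 or 1.5 nM to 3 µM. Designed RNA switches had been transcribed on Illumina chips by stalled E. coli RNA polymerase. Apparent KD per design is the median over clusters of curves fitted to normalised cluster fluorescence.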

[1] = input ligand: microRNA oligo, concentration not stated
[2] = Eterna round: R95, input ligand: FMN 200 uM
[3] = Eterna round: R95, input ligand: microRNA oligo, concentration not stated
[4] = Eterna round: R95, input ligand: none

Sequence	apparent KD of MS2 coat protein [1] [nM]	apparent KD of MS2 coat protein (input ligand: FMN 200 uM) [nM]	apparent KD of MS2 coat protein (input ligand: none) [nM]	apparent KD of MS2 coat protein [2] [nM]	apparent KD of MS2 coat protein [3] [nM]	apparent KD of MS2 coat protein [4] [nM]
ACAUGAGGAUCACCCAUGUAUAGAUUUGAAUGUUAAGUUACGUAGGAUAUCGUGUUUAGUAUGAUCGAGAAGGACGAUCUGAUA [JR_SSNG3_Sub066] (Eterna round: R96, puzzle: Same State NG 3)	18.6					
ACAUGAGGCGCAGGAUAUACAGUUGUAUAACAUGAGGACAUGACAUGAGGAUCACCCAUGUCCCAGUAGAAGGGCGAACAUGAG [Same State NG2 S2] (Eterna round: R96, puzzle: Same State NG 2)	102	172	144			
ACCCAAAGUAUAUGGGAACGAGCUUUUUAACAUGAGGAUCACCCAUGUACUCGUCUUAUAAGCAGUCGAAAGACUGC [Sensor 100 - 3] (puzzle: Sensor for hsa-mir-208a)				359	19.2	390
ACGCAGCUGGGUGAGGAUAUCGGUGGUAAAACAUGAGGAUCACCCAUGUCCGAAGCUCGGACUUCCGAGAAGGCGCCCGGCUGCG [Soinraesar] (puzzle: Same State 2)				11.4	104	103
ACGCCCUCAGUAGGAUAUGGGAAAGGAAGUGUACCAGAAGGACUGGUUGAACAUGAGGAUCACCCAUGUUCAACGACAGGGCGA [PowerStrip SSNG 1.25] (Eterna round: R96, puzzle: Same State NG 1)	14	18.9	22.8			
ACUCUCACAGUAGGAUAUGUAGGAUAUGCCUACAUGAGGAUCACCCAUGUAAACAUGGCAGAAGGAUAGAAGGACUUACAUUGG [pwkr ssNG2 2FMN + 1F5.1] (Eterna round: R96, puzzle: Same State NG 2)	577	495	762			
ACUUACAUGGUAGGAUAUGUCCGUCUAGCUGACACAGAAGGGCCAAGCUCUACGACAUGAGGAUCACCCAUGUGAAGGAGAGGC [Eternabot solution 49] (Eterna round: R96, puzzle: Same State NG 1)	13.6	15.1	18.3			
AGAAAACAUGAGGAUCACCCAUGUAUAGUGAAUACAGGAUAUCACCGACGGAAUAAUUGGUGAGAAGGGUGAUCGC [Ceaqu] (puzzle: Same State 1)				21.2	11.8	23.2
AGAGAACAUGAGGAUCACCCAUGUAGGAUGGGCAUAGGAUAUAGAAGGAUGAGGGAGAAACUAGAAGGAUGAUGGA [JR_SS1_Sub077] (puzzle: Same State 1)				124	152	278
AGAGCCGGCACUGAGGAUAUUCAUAAUAAAACAUGAGGAUCACCCAUGUAGGCCAGAAGGCCUUGGGAGAAGGCAGGUCGGCUCG [Mat - Same State 2 - Mod of UCT - D68] (puzzle: Same State 2)				17.3	122	200
AGAUCAUGACGAGGAUAUGCAACAUGAGGAUCACCCAUGUAUGUUGCAGGACGCGUACGUCCAAUGUAGAAGGCGUCGUGGUCA [JL SSNG2 1.06] (Eterna round: R96, puzzle: Same State NG 2)	146	40.2	150			
AGAUGUUAAUCAGGAUAUGGGCACAUGAGGAUCACCCAUGUAAAUUAGAUACUAUGUGGUCAAGUCUAGAAGGGAUGGCUAACA [SameState NG2 #81] (Eterna round: R96, puzzle: Same State NG 2)	145	346	182			
AGCAUACAUGAGGAUCACCCAUGUCAACUUAGUCGAGGAUAUGGGCAGCCGUGAGGCGAACCAGAAGGCGAAUUGA [Mat - Same State 1 - Mod of JL - D2] (puzzle: Same State 1)				18.5	28.1	26.2
AGCGAGAUAGGCAAGGAUAUGCUGGGUUGCACAUGAGGAUCACCCAUGUCAUUGGUUAUGGCCGAGCAGAAGGUGCAUUCUCUUU [ak bound state near shape] (puzzle: Same State 2)				19.5	75.6	66.5
AGCUAAAACGAAGGAUAUACUGACAUGAGGAUCACCCAUGUCUACAUGAUUUAUUGUGAUCACAUGUAGAAGGUCGUACUAACA [SameState NG2 #22] (Eterna round: R96, puzzle: Same State NG 2)	58.5					
AGCUAGUACCGAGGAUAUACAUACAUGAGGAUCACCCAUGUAUACAUGAAUUAAUGAGACUACAUGUAGAAGGCGGUACUAGCA [JL SSNG2 1.22] (Eterna round: R96, puzzle: Same State NG 2)	54					

Sequence	apparent KD of MS2 coat protein [1] [nM]	apparent KD of MS2 coat protein (input ligand: FMN 200 uM) [nM]	apparent KD of MS2 coat protein (input ligand: none) [nM]	apparent KD of MS2 coat protein [2] [nM]	apparent KD of MS2 coat protein [3] [nM]	apparent KD of MS2 coat protein [4] [nM]
AGCUAUUAAUCAGGAUAUAGGGACAUGAGGAUCACCCAUGUAUACAUGAUGAAAUGUGGUCACCUCUAGAAGGGAUUACUAACA [SameState NG2 #42] (Eterna round: R96, puzzle: Same State NG 2)	109	155	178			
AGCUAUUAAUCAGGAUAUGGUCACAUGAGGAUCACCCAUGUAUAGAUGAUAAAAUGUGGUCUACACUAGAAGGGAUUGCUAACA [SameState NG2 #59] (Eterna round: R96, puzzle: Same State NG 2)	78.9	89.5	106			
AGCUAUUACGAAGGAUAUAGUGACAUGAGGAUCACCCAUGUGUACAUGAGUAAUUGUGAUCACGUCUAGAAGGUUGUACUAACA [SameState NG2 #35] (Eterna round: R96, puzzle: Same State NG 2)	165	181	180			
AGCUAUUACGAAGGAUAUUCUGACAUGAGGAUCACCCAUGUCUUCAUGAUUUAUUGUGAUCACAUGAAGAAGGUUGUACUAACA [SameState NG2 #25] (Eterna round: R96, puzzle: Same State NG 2)	130	106	93.1			
AGCUAUUACGAAGGAUAUUCUGACAUGAGGAUCACCCAUGUCUUCAUGAUUUAUUGUGAUCACGUGGAGAAGGUUGUACUAACA [SameState NG2 #27] (Eterna round: R96, puzzle: Same State NG 2)	77.9	90.4	91.4			
AGCUUGUAACAUGAGGAUCACCCAUGUACAAGCUUUUUGCUCGUUUUACCCGGGCCCGGCGAUUACACGGGCCCGGG [Optimized Design] (puzzle: Sensor for hsa-mir-208a version 2)				10.1	9.89	9.67
AGGACGAGCACAGGAUAUCCGCGGAACAGCCGCGGAGAAGGGUGAAGUCAUGGAAAGAAAAGACAUGAGGAUCACCCAUGUAAA [Ageteerer] (Eterna round: R96, puzzle: Same State NG 1)	1320	223	680			
AGGCAAGCUUUUUGCUGGUAUGGAGGAUAACAUGAGGAUCACCCAUGUAUUGGAGGUGUUGUGGAUUUGAGAAAGAA [JR_SHM208A_Sub004] (puzzle: Sensor for hsa-mir-208a)				74	94.6	103
AGGUUCCUGCUAGGAUAUCUAGGAUAUGGACGAGGAUUACCCGAGCAGGAUUACCGCACCAGAGGAGAGAAGGAGCAACAAGAG [pwkr ssNG2 2F5 2FMN.14] (Eterna round: R96, puzzle: Same State NG 2)	370	1740	160			
AGUAGGGCGUCAUAGGAUAUCCGGAAGAGUACAUGAGGAUCACCCAUGUCACUCCGCCAUGCAGAGGAGAAGGGUGGUGUUGUAC [Biedzage] (puzzle: Same State 2)				77.6	36.6	41
AGUCCAGCCAGAGCUGGACAAAAGCAUGUACAUGAGGAUCACCCAUGUUCAUGUACAAGCUUUUUGCUCGUCUUAAU [Mat - hsa-mir-208a - Mod of JL - 59] (Eterna round: R96, puzzle: Sensor for hsa-mir-208a)	15.3	620	583			
AGUCCAGCCAGAGCUGGACAAAAGCAUGUACAUGAGGAUCACCCAUGUUCAUGUACAAGCUUUUUGCUCGUCUUAAU [Mat - hsa-mir-208a - Mod of JL - 59] (puzzle: Sensor for hsa-mir-208a)				482	14.1	553
AGUCCAGCCUGAGCUGGACAAAAGCAUGUACAUGAGGAUCACCCAUGUCAUGUACAAGCUUUUUGCUAGUCUUAAAA [Mat - hsa-mir-208a - Mod of JL - D12] (puzzle: Sensor for hsa-mir-208a)				413	13.7	551
AGUCCAGCCUGAGCUGGACAAAAGCAUGUACAUGAGGAUCACCCAUGUUCAUGUACAAGCUUUUUGCUCGUCUUAUA [salish99_208a_r3_043] (puzzle: Sensor for hsa-mir-208a)				528	14.6	697
AGUCCAGCCUGAGCUGGACAAAAGCAUGUACAUGAGGAUCACCCAUGUUCAUGUACAAGCUUUUUGUUCGUCUUAAA [Zipper 52 - 9] (puzzle: Sensor for hsa-mir-208a)				179	11	431
